Data on five molecules can be found in patent US20110250165A1.

B1: 33-IgG1 (antibody, V domains shown)
VH: QVTLKESGGGVVQPGRSLRLSCAASGFTFTNYGLHWVRQAPGKGLEWVAVISHDGTKKYYADSVKGRFTISRDSSENTLYLQMNSLRPEDSALYYCARDGGYCSGGRCYSYGMDVWGQGTTVTVSS
VL: QSVLTQPPSASGTPGQRVTISCSGSRSNIGSNTVNWYQQLPGTAPKLLIYTNNQRPSGVPDRFSGSKSGTSASLAITGLQAEDEADYYCLSFDSSLTSYVFGTGTKVTVLG
B2: 6R-Fc (Fc fusion, part only; not given: VH-VL linker, hinge and IgG1 Fc, not shown: another chain or arm of the molecule; a dimerising Fc or GST; small tags and cut ends)
VH: QVQLQQSGPGLVKPSQTLSLTCAVSGDSVSSNFVAWNWIRQSPSRGLEWLGRTYYRSRWYNDYAVSVQSRIRVTPDTSKNQFSLHLDSVTPEDTAVYYCARGQHSGFDFWGQGTLVTVSS
VL: QSVLTQPPSVSKGLRQTATLTCTGNSNNVGNQGAAWLQQHQGHPPKLLSYRNNNRPSGISERFSASRSGNTASLTITGLQPEDEADYYCSAWDNRLKTYVFGTGGKVTVL
B3: 2N-Fc (Fc fusion, part only; not given: linker and human IgG1 hinge-Fc, not shown: another chain or arm of the molecule; a dimerising Fc or GST; small tags and cut ends)
VH: EVQLVESGGGVVQPGRSLRLSCAASGFTFSSYGMHWVRQAPGKGLEWVAVISYDGSNKYYADSVKGRFTISRDNSKNTLYLQVSSLRAEDTAVYYCVRDLVAAAGTAFDIWGQGTTVTVSS
VL: QPVLTQPRSVSGSPGQSVTISCTGTISDVGGHNFVSWYQQNPGKAPKLIIFEVTKRPAGVPDRFSGSKSGNTASLTVSGLQAEDEGEYYCSSYGGSNDVIFGGGTKLSVL
B4: 33-Fc (Fc fusion, part only; not given: linker and human IgG1 hinge-Fc, not shown: another chain or arm of the molecule; a dimerising Fc or GST; small tags and cut ends)
VH: B1 VH
VL: QSVLTQPPSASGTPGQRVTISCSGSRSNIGSNTVNWYQQLPGTAPKLLIYTNNQRPSGVPDRFSGSKSGTSASLAITGLQAEDEADYYCLSFDSSLTSYVFGTGTKVTVL
B5: 20-Fc (Fc fusion, part only; not given: linker and human IgG1 hinge-Fc, not shown: another chain or arm of the molecule; a dimerising Fc or GST; small tags and cut ends)
VH: EVQLVQSGGGLVQPGGSLRLSCAASGFTFSSYAMSWVRQAPGKGLEWVANIKQDGSEKYYVDSVKGRFTISRDNAKNSLYLQMNSLRAEDTAVYYCARDQVSGITIFGGKWRSPDVWGQGTTVTVSS
VL: SSELTQDPAVSVALGQTVRITCQGDSLRSYYASWYQQKPGQAPVLVIYGKNNRPSGIPDRFSGSKSHNTAYLTITGAQAEDEADYFCNSRSGSQRVFGGGTKLTVL

One assay has as its target ΔN25-CXCR4 (human) (UniProt P61073). The assay can be described thus: FACS on 293T cells expressing CXCR4 variants.
Consider B1, for which the binding (+%) is 13%.
Same read-out and setting: to B2 belongs 60%.
Still for that read-out and setting: then B3, with -6.3%.

The target in the next assay is ΔN31-CXCR4 (human) (UniProt P61073). In words: FACS on 293T cells expressing CXCR4 variants.
In the case of B1, the binding (+%) is 9%.
For the molecule B2, the binding (+%) was 12.8%.
The same measure, in the same setting: then B3, with -7%.

The next assay has as its target 4442 CXCR2/CXCR4 chimera. In words: FACS on 293T cells expressing CXCR4 variants.
For the molecule B2, the binding (+%) was -0.4%.
On the same count and under the same terms, to B3 belongs 89.1%.

For a further assay, the target named is human CXCR4 (wild type) (human) (UniProt P61073). In words: FACS on 293T cells expressing CXCR4 variants.
Sequence of human CXCR4 (wild type) (human) (P61073 whole entry): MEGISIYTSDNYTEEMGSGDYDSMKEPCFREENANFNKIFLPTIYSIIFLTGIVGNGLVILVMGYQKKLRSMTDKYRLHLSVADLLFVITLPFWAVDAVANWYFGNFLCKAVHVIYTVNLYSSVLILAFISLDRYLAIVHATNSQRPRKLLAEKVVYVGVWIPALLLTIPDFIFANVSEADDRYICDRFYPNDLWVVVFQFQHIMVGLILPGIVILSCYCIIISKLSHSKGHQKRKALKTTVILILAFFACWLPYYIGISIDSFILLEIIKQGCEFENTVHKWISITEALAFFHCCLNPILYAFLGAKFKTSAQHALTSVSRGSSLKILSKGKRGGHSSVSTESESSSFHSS
As to B2, the binding (+%) was 100%.
For B3, the binding (+%) is 100%.

Another assay deals with 2442 CXCR2/CXCR4 chimera. In words: FACS on 293T cells expressing CXCR4 variants.
Take B2: the binding (+%) was -3.4%.
For the molecule B3, the binding (+%) was -1.2%.

For the next assay, the target named is 2444b CXCR2/CXCR4 chimera (human) (UniProt P25025). In words: FACS on 293T cells expressing CXCR4 variants.
Sequence of 2444b CXCR2/CXCR4 chimera (human) (P25025 other isoform, or with tags, fused parts or gaps mutant limits assumed): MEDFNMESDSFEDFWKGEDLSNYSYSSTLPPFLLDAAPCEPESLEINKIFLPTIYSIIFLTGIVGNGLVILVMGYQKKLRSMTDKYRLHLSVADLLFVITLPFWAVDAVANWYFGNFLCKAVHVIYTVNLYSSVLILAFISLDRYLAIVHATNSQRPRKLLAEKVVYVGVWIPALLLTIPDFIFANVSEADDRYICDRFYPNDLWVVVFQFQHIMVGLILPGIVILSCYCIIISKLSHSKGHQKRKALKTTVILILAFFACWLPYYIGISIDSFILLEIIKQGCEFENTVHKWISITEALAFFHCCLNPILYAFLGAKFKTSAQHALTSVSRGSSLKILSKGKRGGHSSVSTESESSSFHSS
As for B2, the binding (+%) stood at 2.2%.
The same measure, in the same setting: to B3 belongs -6.2%.

The target in a further assay is rhesus macaque monkey CXCR4 (rhesus macaque) (UniProt P79394). The assay can be described thus: flow cytometry, scFv-Fc on transfected 293T cells. In general terms: A flow cytometer gives signals particle by particle.
Sequence of rhesus macaque monkey CXCR4 (rhesus macaque) (P79394 whole entry): as the sequence (P61073 whole entry) above, with M24I, N35H, K38R, R146K, N176S, V214D counted along it
For the molecule B2, the decrease of binding compared to human CXCR4 amounted to 60%.

The next assay has the same target. In words: flow cytometry, scFv-Fc on transfected 293T cells, FITC anti-human IgG.
For B4, the reactivity (MFI of chimeric receptor/MFI of wild type CXCR4 x 100%) was 103%.
Same read-out and setting: then B5, with 77.5%; and B2, with 41.9%.
Still for that read-out and setting: then B3, with 98.3%.

The target of a further assay is CXCR2 (UniProt P25025). The assay is described as above.
Sequence of CXCR2 (P25025 whole entry): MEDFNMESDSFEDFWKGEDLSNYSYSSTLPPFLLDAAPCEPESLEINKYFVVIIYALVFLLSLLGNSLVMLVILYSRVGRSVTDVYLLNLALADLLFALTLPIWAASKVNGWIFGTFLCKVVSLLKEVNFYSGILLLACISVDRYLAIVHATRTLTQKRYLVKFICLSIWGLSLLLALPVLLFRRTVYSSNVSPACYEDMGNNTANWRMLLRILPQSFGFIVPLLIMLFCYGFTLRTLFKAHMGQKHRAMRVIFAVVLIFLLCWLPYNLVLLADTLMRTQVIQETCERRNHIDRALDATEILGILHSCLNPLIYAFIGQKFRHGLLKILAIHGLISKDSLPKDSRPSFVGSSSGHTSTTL
As for B4, the reactivity (MFI of chimeric receptor/MFI of wild type CXCR4 x 100%) is -0.52%.
Still for that read-out and setting: to B5 belongs 4.1%; to B3, 4.7%.

Another assay addresses Δ-X4. The description is as above.
B4: the reactivity (MFI of chimeric receptor/MFI of wild type CXCR4 x 100%) is 3.1%.
Still for that read-out and setting: to B5 belongs 9.6%; to B2, 16.6%; to B3, -1.6%.

For the next assay, the target named is 4442 CXCR2/CXCR4 chimera. The assay is described as above.
Turning to B4, the reactivity (MFI of chimeric receptor/MFI of wild type CXCR4 x 100%) is 15.5%.
On the same count and under the same terms, to B5 belongs 27.9%.
Still for that read-out and setting: then B2, with 1.4%; and B3, with 61%.

The target in a further assay is mouse CXCR4 (mouse) (UniProt P70658). Described as above.
Sequence of mouse CXCR4 (mouse) (P70658 whole entry): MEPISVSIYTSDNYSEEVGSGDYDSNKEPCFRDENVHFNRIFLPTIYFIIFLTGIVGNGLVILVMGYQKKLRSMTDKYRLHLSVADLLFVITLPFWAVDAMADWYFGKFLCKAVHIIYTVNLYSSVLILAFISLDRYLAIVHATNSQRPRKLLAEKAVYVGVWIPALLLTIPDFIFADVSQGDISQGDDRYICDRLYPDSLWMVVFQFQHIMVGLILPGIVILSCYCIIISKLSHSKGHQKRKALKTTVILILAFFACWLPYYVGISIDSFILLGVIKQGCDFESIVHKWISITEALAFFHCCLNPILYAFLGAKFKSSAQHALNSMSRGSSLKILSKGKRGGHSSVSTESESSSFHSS
Take B4: the reactivity (MFI of chimeric receptor/MFI of wild type CXCR4 x 100%) is 2.1%.
The same measure, in the same setting: then B3, with 3.6%.

In another assay the target is 2242 CXCR2/CXCR4 chimera. The description is as above.
Turning to B4, the reactivity (MFI of chimeric receptor/MFI of wild type CXCR4 x 100%) was determined as 0.3%.
Same read-out and setting: then B5, with 11.6%; and B2, with 1%.
Still for that read-out and setting: to B3 belongs 1.2%.

A further assay has as its target human CXCR4 (wild type) (human) (UniProt P61073). Described as above.
As to B4, the reactivity (MFI of chimeric receptor/MFI of wild type CXCR4 x 100%) was found to be 100%.
B5: the reactivity (MFI of chimeric receptor/MFI of wild type CXCR4 x 100%) came out at 100%.
With B2, the reactivity (MFI of chimeric receptor/MFI of wild type CXCR4 x 100%) stood at 100%.
Still for that read-out and setting: to B3 belongs 100%.

In the next assay the target is 2442 CXCR2/CXCR4 chimera. The description is as above.
As to B4, the reactivity (MFI of chimeric receptor/MFI of wild type CXCR4 x 100%) came to 0.7%.
With B5, the reactivity (MFI of chimeric receptor/MFI of wild type CXCR4 x 100%) stood at 7.6%.
On the same count and under the same terms, to B2 belongs 3.7%; to B3, 4.5%.

In another assay the target is 2444b CXCR2/CXCR4 chimera (human) (UniProt P25025). The assay is described as above.
Consider B4, for which the reactivity (MFI of chimeric receptor/MFI of wild type CXCR4 x 100%) amounted to 0.7%.
The same measure, in the same setting: then B5, with 12.9%; and B2, with 4.7%; and B3, with 8.3%.
